Test results published in publication PMC8324831, “A synthetic nanobody targeting RBD protects hamsters from SARS-CoV-2 infection” (Nature Communications, 2021).
Where two headings read alike, the source gives them in different places.

Assays:
[1] = target: T1, SARS-CoV-2 S-RBD with Avi-tag and deca-His tag (residues 330-531) (SARS-CoV-2, UniProt P0DTC2, biotin on the Avi tag (BirA) where immobilised on streptavidin sensors or used in ELISA and FSEC); test: SEC; details: one partner purified
[2] = target: T1, SARS-CoV-2 S-RBD with Avi-tag and …
[3] = target: T1, SARS-CoV-2 S-RBD with Avi-tag and …; test: BLI; Octet RED96; biotinylated RBD immobilised on SA sensor; sybodies as analytes; 30 °C; 0.005% Tween 20, 150 mM NaCl, 20 mM Tris HCl pH 8.0; fitted for 1:1 stoichiometry; details: both partners purified
[4] = target: T1, SARS-CoV-2 S-RBD with Avi-tag and …; test: cell-based or functional assay
[5] = target: SARS-CoV-2 S-RBD for crystallization (residues 330-531, Avi-tag and His-tag removed by 3C protease) (SARS-CoV-2, Wuhan-Hu-1 reference …, UniProt P0DTC2); test: crystal structure; details: both partners purified
[6] = target: T1, SARS-CoV-2 S-RBD with Avi-tag and …; test: ELISA; Myc-tagged sybody from lysate captured by anti-Myc antibody on protein A-coated plate; 50 nM biotinylated RBD added; streptavidin-HRP; room temperature, TBST; details: one partner purified
[7] = target: SARS-CoV-2 S-RBD with Avi-tag and deca-His tag (residues 330-531) (SARS-CoV-2, UniProt P0DTC2 330-531); test: cell-based or functional assay

Binder	binding result [2]	other results
sybody MR4 (VHH) VHH: QVQLVESGGGLVQAGGSLRLSCAASGFPMYAWEMAWYRQAPGKEREWVAAIRSMGVHTHYSDSVKGRFTISRDNAKNTVYLQMNSLKPEDTAVYYCNVKDFGGHQAYYDYWGQGTQVTVS	–	binding result [1]: binds
LR13 (VHH) VHH: QVQLVESGGGSVQAGGSLRLSCAASGSISSITYLGWFRQAPGKEREGVAALITHAGRTYYADSVKGRFTVSLDNAKNTVYLQMNSLKPEDTALYYCAAADWGWYWPLVIDHYEYWGQGTQVTVS	binds	–
LR7 (VHH) VHH: QVQLVESGGGSVQAGGSLRLSCAASGSISSITYLGWFRQAPGKEREGVAALITNWGHTYYADSVKGRFTVSLDNAKNTVYLQMNSLKPEDTALYYCAAAFHGEQYPLYTNKYHYWGQGTQVTVS	binds	–
sybody MR3 (VHH) VHH: QVQLVESGGGLVQAGGSLRLSCAASGFPVNAHFMYWYRQAPGKEREWVAAIYSYGRTLYADSVKGRFTISRDNAKNTVYLQMNSLKPEDTAVYYCNVKDYGAASWEYDYWGQGTQVTVS	–	Kd [3]: 1 nM; koff [3]: 0.00023 s⁻¹; IC50 of neutralisation of SARS-CoV-2 S pseudovirus on VeroE6-hACE2 cells (blocks RBD-ACE2) [4]: 0.42 µg/mL
sybody SR4 (VHH) VHH: QVQLVESGGGLVQAGGSLRLSCAASGFPVYSWNMWWYRQAPGKEREWVAAIESHGDSTRYADSVKGRFTISRDNAKNTVYLQMNSLKPEDTAVYYCYVWVGHTYYGQGTQVTVS	–	binding result [5]: binds; binding result [6]: binds
sybody MR17 (VHH) VHH: QVQLVESGGGLVQAGGSLRLSCAASGFPVEVWRMEWYRQAPGKEREGVAAIESYGHGTRYADSVKGRFTISRDNAKNTVYLQMNSLKPEDTAVYYCNVKDDGQLAYHYDYWGQGTQVTVS	–	Kd [3]: 83.7 nM
LR8 (VHH) VHH: QVQLVESGGGSVQAGGSLRLSCAASGTIAYIKYLGWFRQAPGKEREGVAALMTRWGETYYADSVKGRFTVSLDNAKNTVYLQMNSLKPEDTALYYCAAANYGANFPLQANTYFYWGQGTQVTVS	binds	–
LR12 (VHH) VHH: QVQLVESGGGSVQAGGSLRLSCAASGSIASIKYLGWFRQAPGKEREGVAALMTRWGETYYADSVKGRFTVSLDNAKNTVYLQMNSLKPEDTALYYCAAAECGANSPLHAKDYSYWGQGTQVTVS	binds	–
LR17 (VHH) VHH: QVQLVESGGGSVQAGGSLRLSCAASGSIAHIKYLGWFRQAPGKEREGVAALMTRHGQTYYADSVKGRFTVSLDNAKNTVYLQMNSLKPEDTALYYCAAAYYGANFPLFQTGYTYWGQGTQVTVS	binds	–
LR4 (VHH) VHH: QVQLVESGGGSVQAGGSLRLSCAASGFIHSIYYLGWFRQAPGKEREGVAALNTQHGTTYYADSVKGRFTVSLDNAKNTVYLQMNSLKPEDTALYYCAAARWGRNYPLNYWQYSYWGQGTQVTVS	binds	–
Fc-MR3 (Fc fusion) GSSSQVQLVESGGGLVQAGGSLRLSCAASGFPVNAHFMYWYRQAPGKEREWVAAIYSYGRTLYADSVKGRFTISRDNAKNTVYLQMNSLKPEDTAVYYCNVKDYGAASWEYDYWGQGTQVTVSERKCCVECPPCPAPPVAGPSVFLFPPKPKDTLMISRTPEVTCVVVDVSHEDPEVQFNWYVDGVEVHNAKTKPREEQFNSTFRVVSVLTVVHQDWLNGKEYKCKVSNKGLPAPIEKTISKTKGQPREPQVYTLPPSREEMTKNQVSLTCLVKGFYPSDIAVEWESNGQPENNYKTTPPMLDSDGSFFLYSKLTVDKSRWQQGNVFSCSVMHEALHNHYTQKSLSLSPGK	–	IC50 of neutralisation of SARS-CoV-2 S pseudovirus on VeroE6-hACE2 cells (blocks RBD-ACE2) [7]: 0.042 µg/mL
LR10 (VHH) VHH: QVQLVESGGGSVQAGGSLRLSCAASGTISSITYLGWFRQAPGKEREGVAALTTNNGHTYYADSVKGRFTVSLDNAKNTVYLQMNSLKPEDTALYYCAAADWGYDWPLDRYHYWYWGQGTQVTVS	binds	–
LR6 (VHH) VHH: QVQLVESGGGSVQAGGSLRLSCAASGSISSITYLGWFRQAPGKEREGVAALVTTSGNTYYADSVKGRFTVSLDNAKNTVYLQMNSLKPEDTALYYCAAATWGYSWPLEHDEYWYWGQGTQVTVS	binds	–
LR16 (VHH) VHH: QVQLVESGGGSVQAGGSLRLSCAASGSISSITYLGWFRQAPGKEREGVAALYTTHGYTYYADSVKGRFTVSLDNAKNTVYLQMNSLKPEDTALYYCAAADWGYNIPLNITDYWYWGQGTQVTVS	binds	–
LR18 (VHH) VHH: QVQLVESGGGSVQAGGSLRLSCAASGSISSITYLGWFRQAPGKEREGVAALVTENGHTYYADSVKGRFTVSLDNAKNTVYLQMNSLKPEDTALYYCAAATWGYEWPLYSNDYFYWGQGTQVTVS	binds	–
LR9 (VHH) VHH: QVQLVESGGGSVQAGGSLRLSCAASGSISSITYLGWFRQAPGKEREGVAALITARGRTYYADSVKGRFTVSLDNAKNTVYLQMNSLKPEDTALYYCAAANWGYNWPLAYSDYWYWGQGTQVTVS	binds	–
sybody LR5 (VHH) VHH: QVQLVESGGGSVQAGGSLRLSCAASGSISSITYLGWFRQAPGKEREGVAALITSNGRTYYADSVKGRFTVSLDNAKNTVYLQMNSLKPEDTALYYCAAATWGYHWPLGAWDYWYWGQGTQVTVS	–	binding result [1]: binds
sybody LR1 (VHH) VHH: QVQLVESGGGSVQAGGSLRLSCAASGSISSITYLGWFRQAPGKEREGVAALITDSGRTYYADSVKGRFTVSLDNAKNTVYLQMNSLKPEDTALYYCAAAEWGYEWPLYYASSWYWGQGTQVTVS	–	binding result [1]: binds
LR15 (VHH) VHH: QVQLVESGGGSVQAGGSLRLSCAASGSISSITYLGWFRQAPGKEREGVAALKTASGQTYYADSVKGRFTVSLDNAKNTVYLQMNSLKPEDTALYYCAAADWGYNWPLIREEYEYWGQGTQVTVS	binds	–
LR11 (VHH) VHH: QVQLVESGGGSVQAGGSLRLSCAASGSISSITYLGWFRQAPGKEREGVAALVTHSGSTYYADSVKGRFTVSLDNAKNTVYLQMNSLKPEDTALYYCAAAYWGWDWPLNSQDYWYWGQGTQVTVS	binds	–
LR14 (VHH) VHH: QVQLVESGGGSVQAGGSLRLSCAASGSIPGITYLGWFRQAPGKEREGVAALVTNSGHTYYADSVKGRFTVSLDNAKNTVYLQMNSLKPEDTALYYCAAADWGYQWPLDKAEYWYWGQGTQVTVS	binds	–
